According to patent publication US20240228626A1 (IMMUNORIZON, published 2024):

T1: NKG2D on primary NK cells purified from healthy donor's PBMCs (human, UniProt P26718 1-216)
T1 construct: whole, on cells
T1 sequence (looked up): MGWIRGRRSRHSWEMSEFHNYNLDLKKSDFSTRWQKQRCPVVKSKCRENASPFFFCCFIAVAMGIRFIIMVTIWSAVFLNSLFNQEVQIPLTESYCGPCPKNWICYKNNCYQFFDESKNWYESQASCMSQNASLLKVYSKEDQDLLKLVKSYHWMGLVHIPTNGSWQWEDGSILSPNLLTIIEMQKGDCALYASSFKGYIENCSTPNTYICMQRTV


Key:
[1] = target: cyno-NKG2D/Dap10 over-expressed in CHO cells (cyno) (UniProt P61252); assay: FACS on CHO cells over expressing cynoNKG2D
Sequence of cyno-NKG2D/Dap10 over-expressed in CHO cells (cyno) (P61252 whole entry): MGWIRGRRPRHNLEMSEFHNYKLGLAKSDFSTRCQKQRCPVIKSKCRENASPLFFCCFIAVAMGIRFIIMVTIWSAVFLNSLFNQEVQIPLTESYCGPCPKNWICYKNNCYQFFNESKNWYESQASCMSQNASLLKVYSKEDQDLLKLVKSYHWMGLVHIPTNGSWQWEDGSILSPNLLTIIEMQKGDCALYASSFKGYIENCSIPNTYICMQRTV

[2] = target: T1, NKG2D on primary NK cells purified from …; assay: FACS on cells
[3] = target: NKG2D on primary NK cells purified from healthy donor's PBMCs (human) (UniProt P26718); assay: cell-based or functional assay
[4] = target: T1, NKG2D on primary NK cells purified from …; assay: FACS on primary NK cells, two concentrations
[5] = target: recombinant human NKG2D-ECD-Fc (extracellular domain of NKG2D fused to human Fc) (human) (UniProt P26718); assay: ELISA on coated NKG2D-ECD-Fc
[6] = target: T1, NKG2D on primary NK cells purified from …; assay: FACS on primary NK cells, 100 nM and 10 nM

Row | Binder | EC50 [1] [nM] | EC50 [5] [nM] | other results
1 | IM1246 CD3x5T4x NKG2D-cl-9 (L-H) (protein, part only; not given: anti-CD3 Fab, anti-5T4 scFv, linkers, not shown: another chain or arm of the molecule; small tags and cut ends) VL: DVLMTQTPLSLPVSLGDQASISCRSSQSIVHTNGNTYLEWYLQKPGQSPKLLIYRVFNRFSGVPDRFSGSGSGTEFTLKISRVEAEDLGVYYCFQGSHVPFTFGAGTKLELK VH: EVKLLQSGGGLVQPGGSLKLSCAASGIDLSRYWMSWVRRAPGKGLEWIGEINPDSSTINYAPSLKDKFIISRDNAKNTLSLQMRKVRSEDTALYFCIRRRYYGSSYWYFDVWGTGTTVTVSS | 15 | – | –
2 | IM1247 CD3x5T4x NKG2D-cl-9 (H-L) (protein, part only; not given: anti-CD3 Fab, anti-5T4 scFv, linkers, not shown: another chain or arm of the molecule; small tags and cut ends) VH: EVKLLQSGGGLVQPGGSLKLSCAASGIDLSRYWMSWVRRAPGKGLEWIGEINPDSSTINYAPSLKDKFIISRDNAKNTLSLQMRKVRSEDTALYFCIRRRYYGSSYWYFDVWGTGTTVTVSS VL: DVLMTQTPLSLPVSLGDQASISCRSSQSIVHTNGNTYLEWYLQKPGQSPKLLIYRVFNRFSGVPDRFSGSGSGTEFTLKISRVEAEDLGVYYCFQGSHVPFTFGAGTKLELK | 30 | – | –
3 | mAb009 (antibody, V domains shown, Mouse hybridoma mAb, protein A purified; also called IM, NKG2D mouse hybridoma cl- 9; NKG2D-cl-9) VH: EVKLLQSGGGLVQPGGSLKLSCAASGIDLSRYWMSWVRRAPGKGLEWIGEINPDSSTINYAPSLKDKFIISRDNAKNTLSLQMRKVRSEDTALYFCIRRRYYGSSYWYFDVWGTGTTVTVSS VL: DVLMTQTPLSLPVSLGDQASISCRSSQSIVHTNGNTYLEWYLQKPGQSPKLLIYRVFNRFSGVPDRFSGSGSGTEFTLKISRVEAEDLGVYYCFQGSHVPFTFGAGTKLELK | – | – | binding result [2]: binds
4 | IM1091 CD3/5T4/NKG2D mut(VL-VH) (protein, part only; not given: anti-CD3 Fab, anti-5T4 scFv, linkers, not shown: another chain or arm of the molecule; small tags and cut ends) VL: QSALTQPASVSGSPGQSITISCSGSSSNIGNNAVNWYQQLPGKAPKLLIYADDLLPSGVSDRFSGSKSGTSAFLAISGLQSEDEADYYCAAWDDSLNGPVFGGGTKLTVL VH: QVQLVESGGGLVKPGGSLRLSCAASGFTFSSYGMHWVRQAPGKGLEWVAFIRYDGSNKYYADSVKGRFTISRDNSKNTLYLQMNSLRAEDTAVYYCAKDAGEGDGTYFDYWGQGTTVTVSS | – | – | activation as measured by CD107a MFI on CD56^+gated NK cells population [3]: 35 to 40%
5 | mAb019 (antibody, V domains shown, Mouse hybridoma mAb, protein A purified; also called IM, NKG2D mouse hybridoma cl- 19; NKG2D-cl-19) VH: QVQLKESGPGLVAPSQSLSITCTVSGFSLTSYAISWFRQPPGKGLECLGVIWTGGGTNYNSVFKSRLSIIKDNSKSQVFLKMNSLQTDDTARYYCARKGDEGYWGYFDVWGTGTTVTVSS VL: DILLTQSPAILSVSPGERVSFSCRASQSIGTSIHWYQQRTNVSPRLLIKYASESISGIPSRFSGSGSGTDFTLSINNVESEDIADYYCQHSNRWPLTFGAGTKLELK | – | – | binding result [4]: binds
6 | IM1248 CD3x5T4x NKG2D-cl-10 (L-H) (protein, part only; not given: anti-CD3 Fab, anti-5T4 scFv, linkers, not shown: another chain or arm of the molecule; small tags and cut ends) VL: DIVLTQSPASLAMSLGKRATISCRASESVSIMGTNLINWYQQKLGQPPKLLIYHASNLETGVPARFSGSGSRTDFTLTIDPVEEDDVAVYYCLQGRKIPRTFGGGTKLEIK VH: QVQLQQPGAELVKPGASVKLSCKASGYTFTTYWIQWIKQRPGQGLEWIGEIDPSDIFTNYNQKFKGKATLTVDTSSSTAYMQLSSLTSEDSAVYYCARGVYDGYYVGYFDVWGTGTTVTVSS | 5.9 | 1.7 | –
7 | mAb010 (antibody, V domains shown, Mouse hybridoma mAb, protein A purified; also called IM, NKG2D mouse hybridoma cl- 10; NKG2D-cl-10) VH: QVQLQQPGAELVKPGASVKLSCKASGYTFTTYWIQWIKQRPGQGLEWIGEIDPSDIFTNYNQKFKGKATLTVDTSSSTAYMQLSSLTSEDSAVYYCARGVYDGYYVGYFDVWGTGTTVTVSS VL: DIVLTQSPASLAMSLGKRATISCRASESVSIMGTNLINWYQQKLGQPPKLLIYHASNLETGVPARFSGSGSRTDFTLTIDPVEEDDVAVYYCLQGRKIPRTFGGGTKLEIK | – | – | binding result [6]: binds
8 | IM1244 CD3x5T4x NKG2D-cl-1 (L-H) (protein, part only; not given: anti-CD3 Fab, anti-5T4 scFv, linkers, not shown: another chain or arm of the molecule; small tags and cut ends) VL: DIVLTQSPASLAVSLGQRAIISCKASQSVSFAGSNLMHWYQQKPGQQPKLLIYRASNLEVGVPTRFSGSGSGTDFTLNIHPVDEDDAATYYCQQSREYPFTFGSGTKLEIK VH: EVQLQQSGPELVKPGASVKISCKASAFNFTSYYLHWVKQGPGQGLEWIGWIYPGSGDTKYNEKFKGKATLTADTSSSAANMKLSSLTSEDSAVYYCARNRIFDSYYVDSMDYWGQGTSVTVSS | 21 | 2.6 | –
9 | mAb001 (antibody, V domains shown, Mouse hybridoma mAb, protein A purified; also called IM, NKG2D mouse hybridoma cl- 1; NKG2D-cl-1) VH: EVQLQQSGPELVKPGASVKISCKASAFNFTSYYLHWVKQGPGQGLEWIGWIYPGSGDTKYNEKFKGKATLTADTSSSAANMKLSSLTSEDSAVYYCARNRIFDSYYVDSMDYWGQGTSVTVSS VL: DIVLTQSPASLAVSLGQRAIISCKASQSVSFAGSNLMHWYQQKPGQQPKLLIYRASNLEVGVPTRFSGSGSGTDFTLNIHPVDEDDAATYYCQQSREYPFTFGSGTKLEIK | – | – | binding result [6]: binds
10 | IM1245 CD3x5T4x NKG2D-cl-1 (H-L) (protein, part only; not given: anti-CD3 Fab, anti-5T4 scFv, linkers, not shown: another chain or arm of the molecule; small tags and cut ends) VH: EVQLQQSGPELVKPGASVKISCKASAFNFTSYYLHWVKQGPGQGLEWIGWIYPGSGDTKYNEKFKGKATLTADTSSSAANMKLSSLTSEDSAVYYCARNRIFDSYYVDSMDYWGQGTSVTVSS VL: DIVLTQSPASLAVSLGQRAIISCKASQSVSFAGSNLMHWYQQKPGQQPKLLIYRASNLEVGVPTRFSGSGSGTDFTLNIHPVDEDDAATYYCQQSREYPFTFGSGTKLEIK | 13 | 1.1 | –

Second part, led by results:

Row | EC50 [1] [nM] | EC50 [5] [nM] | Binder | other results
11 | 2.3 | – | IM1250 CD3x5T4x NKG2D-cl-19 (L-H) (protein, part only; not given: anti-CD3 Fab, anti-5T4 scFv, linkers, not shown: another chain or arm of the molecule; small tags and cut ends) VL: DILLTQSPAILSVSPGERVSFSCRASQSIGTSIHWYQQRTNVSPRLLIKYASESISGIPSRFSGSGSGTDFTLSINNVESEDIADYYCQHSNRWPLTFGAGTKLELK VH: QVQLKESGPGLVAPSQSLSITCTVSGFSLTSYAISWFRQPPGKGLECLGVIWTGGGTNYNSVFKSRLSIIKDNSKSQVFLKMNSLQTDDTARYYCARKGDEGYWGYFDVWGTGTTVTVSS | –
12 | 5.3 | 0.7 | IM1249 CD3x5T4x NKG2D-cl-10 (H-L) (protein, part only; not given: anti-CD3 Fab, anti-5T4 scFv, linkers, not shown: another chain or arm of the molecule; small tags and cut ends) VH: QVQLQQPGAELVKPGASVKLSCKASGYTFTTYWIQWIKQRPGQGLEWIGEIDPSDIFTNYNQKFKGKATLTVDTSSSTAYMQLSSLTSEDSAVYYCARGVYDGYYVGYFDVWGTGTTVTVSS VL: DIVLTQSPASLAMSLGKRATISCRASESVSIMGTNLINWYQQKLGQPPKLLIYHASNLETGVPARFSGSGSRTDFTLTIDPVEEDDVAVYYCLQGRKIPRTFGGGTKLEIK | –
